Target: PERV TM_(493–587) (tag intact) (porcine endogenous retrovirus A (PERV-A))
Assay: SEC; Superdex 75 10/300 GL in 10 mM Tris-HCl, pH 7.5, 150 mM NaCl; calibrated with protein standards (Kav curve); apparent MW ~43 kDa against theoretical trimeric MW 39.9 kDa

“PERV TM_(493–587) (tag intact) (domain or fragment)” was tested, and the stoichiometry N was 3.

— paper PMC8787476
